Source: patent publication US20230181756A1 (Novartis, published 2023)

T1: CCR9 (UniProt P51686 1-369, limits assumed)
T1 construct: whole, on cells; also called PF382 cells (CCR7-/CCR9+/CCR6+)
T1 sequence (looked up): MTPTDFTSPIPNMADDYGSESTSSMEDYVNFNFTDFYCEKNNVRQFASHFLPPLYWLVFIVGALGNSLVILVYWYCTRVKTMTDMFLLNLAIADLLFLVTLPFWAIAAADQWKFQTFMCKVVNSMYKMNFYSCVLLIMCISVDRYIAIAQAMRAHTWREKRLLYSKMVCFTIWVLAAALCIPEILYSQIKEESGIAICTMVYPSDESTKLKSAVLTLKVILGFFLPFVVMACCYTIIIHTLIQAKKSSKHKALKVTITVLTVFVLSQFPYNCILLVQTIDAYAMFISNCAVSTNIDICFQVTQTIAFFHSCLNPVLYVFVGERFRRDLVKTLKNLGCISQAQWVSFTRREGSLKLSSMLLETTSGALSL

T2: CCR6 (UniProt P51684 1-374, limits assumed)
T2 construct: whole, on cells; also called PF382 cells (CCR7-/CCR9+/CCR6+)
T2 sequence (looked up): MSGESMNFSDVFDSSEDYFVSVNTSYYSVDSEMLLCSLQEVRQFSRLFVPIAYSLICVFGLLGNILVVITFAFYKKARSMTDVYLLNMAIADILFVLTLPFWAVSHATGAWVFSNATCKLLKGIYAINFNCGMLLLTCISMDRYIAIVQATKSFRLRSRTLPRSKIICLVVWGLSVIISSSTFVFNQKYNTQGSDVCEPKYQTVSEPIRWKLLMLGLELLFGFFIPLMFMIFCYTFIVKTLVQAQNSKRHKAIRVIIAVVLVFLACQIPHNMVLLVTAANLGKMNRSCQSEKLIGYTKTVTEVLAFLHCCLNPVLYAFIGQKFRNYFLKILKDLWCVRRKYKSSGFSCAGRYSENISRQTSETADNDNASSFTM

T3: cynomolgus monkey CCR7 (cynomolgus monkey, UniProt P32248 25-378 (human entry))
T3 construct: also called Cyno CCR7; NIH3T3.cyno CCR7
T3 sequence: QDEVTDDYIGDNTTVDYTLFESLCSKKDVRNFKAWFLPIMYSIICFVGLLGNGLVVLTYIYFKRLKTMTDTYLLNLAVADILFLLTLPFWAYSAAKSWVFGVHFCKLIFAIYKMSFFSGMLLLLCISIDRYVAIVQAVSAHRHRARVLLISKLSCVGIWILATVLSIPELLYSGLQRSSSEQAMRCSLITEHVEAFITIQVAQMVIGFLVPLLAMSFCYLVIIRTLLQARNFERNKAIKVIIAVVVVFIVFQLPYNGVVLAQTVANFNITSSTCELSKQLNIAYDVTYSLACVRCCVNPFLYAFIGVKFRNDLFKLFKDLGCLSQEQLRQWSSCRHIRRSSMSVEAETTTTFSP

T4: human CCR7 (human, UniProt P32248 25-378)
T4 construct: The assay field tells which; also called hCCR7; NIH3T3.hCCR7
T4 sequence: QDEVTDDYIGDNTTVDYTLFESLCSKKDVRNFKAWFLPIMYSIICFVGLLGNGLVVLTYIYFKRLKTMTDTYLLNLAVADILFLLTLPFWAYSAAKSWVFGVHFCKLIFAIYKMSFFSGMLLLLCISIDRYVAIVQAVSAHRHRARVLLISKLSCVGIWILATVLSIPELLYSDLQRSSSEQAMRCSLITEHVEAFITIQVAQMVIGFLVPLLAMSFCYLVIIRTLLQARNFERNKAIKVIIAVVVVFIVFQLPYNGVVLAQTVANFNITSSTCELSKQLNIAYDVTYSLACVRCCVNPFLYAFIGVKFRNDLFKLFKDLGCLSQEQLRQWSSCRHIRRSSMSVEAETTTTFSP

T5: recombinant hCCR7 (Origene #TP306614) (human, UniProt P32248 25-378, limits assumed)
T5 construct: Bought protein coated on ELISA plates; also called recombinant CCR7
T5 sequence (looked up): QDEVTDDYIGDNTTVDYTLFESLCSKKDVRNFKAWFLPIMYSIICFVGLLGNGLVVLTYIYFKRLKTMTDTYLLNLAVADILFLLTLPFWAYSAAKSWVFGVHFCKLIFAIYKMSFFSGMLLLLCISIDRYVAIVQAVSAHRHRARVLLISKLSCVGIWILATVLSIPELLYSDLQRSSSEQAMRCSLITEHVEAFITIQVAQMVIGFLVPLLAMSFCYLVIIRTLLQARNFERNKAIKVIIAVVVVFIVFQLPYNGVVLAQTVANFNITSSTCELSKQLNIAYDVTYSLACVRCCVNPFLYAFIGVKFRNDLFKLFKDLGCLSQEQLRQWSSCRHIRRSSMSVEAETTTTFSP


Tests used:
CCR8 = target: T6, CCR8 (UniProt P51685 1-355, limits assumed); assay: FACS on CHO-CCR8 cells
T6 construct: whole, on cells; also called CHO-CCR8
T6 sequence (P51685 whole entry): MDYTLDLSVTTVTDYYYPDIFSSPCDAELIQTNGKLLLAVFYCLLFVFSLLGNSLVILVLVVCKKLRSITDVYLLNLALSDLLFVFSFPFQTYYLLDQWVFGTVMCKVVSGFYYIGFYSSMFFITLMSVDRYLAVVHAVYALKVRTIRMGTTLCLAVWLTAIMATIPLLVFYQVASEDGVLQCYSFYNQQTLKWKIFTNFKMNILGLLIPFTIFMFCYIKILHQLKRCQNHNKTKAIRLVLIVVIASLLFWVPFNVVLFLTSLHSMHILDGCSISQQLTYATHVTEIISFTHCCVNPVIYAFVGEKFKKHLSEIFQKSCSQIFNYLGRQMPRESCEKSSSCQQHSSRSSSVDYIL

CXCR4 = target: T7, CXCR4 (UniProt P61073 1-352, limits assumed); assay: FACS on HEK293-CXCR4 cells
T7 construct: whole, on cells; also called HEK293-CXCR4
T7 sequence (P61073 whole entry): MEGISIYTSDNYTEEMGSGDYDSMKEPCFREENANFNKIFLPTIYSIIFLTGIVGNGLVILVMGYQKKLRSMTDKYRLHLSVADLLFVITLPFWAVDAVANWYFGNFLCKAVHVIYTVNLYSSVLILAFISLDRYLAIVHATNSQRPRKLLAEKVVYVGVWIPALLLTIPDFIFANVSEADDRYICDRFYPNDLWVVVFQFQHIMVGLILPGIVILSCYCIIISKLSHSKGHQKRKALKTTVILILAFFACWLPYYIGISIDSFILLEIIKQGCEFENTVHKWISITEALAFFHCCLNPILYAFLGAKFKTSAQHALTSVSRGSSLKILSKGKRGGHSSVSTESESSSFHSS

CCR9 = target: T1, CCR9; assay: FACS on PF382 cells (CCR7-/CCR9+/CCR6+)
CCR6 = target: T2, CCR6; assay: FACS on PF382 cells (CCR7-/CCR9+/CCR6+)
cynomolgus monkey CCR7 = target: T3, cynomolgus monkey CCR7; assay: FACS titration, cynomolgus CD4+ T cells
human CCR7 [1] = target: T4, human CCR7; assay: ELISA on CCR7-expressing VLPs, pH 5.8 buffer
human CCR7 [2] = target: T4, human CCR7; assay: ELISA on CCR7-expressing VLPs, pH 7.4 buffer
human CCR7 [3] = target: T4, human CCR7; assay: cell-based or functional assay
human CCR7 [4] = target: T4, human CCR7; assay: FACS titration, DEL cancer cells (receptor density ~100,000)
human CCR7 [5] = target: T4, human CCR7; assay: FACS titration, human CD4+ T cells (receptor density <2,000)
[6] = target: T5, recombinant hCCR7 (Origene #TP306614); assay: ELISA, recombinant CCR7 coated at 3.5 ug/ml, antibody titrated
human CCR7 [7] = target: T4, human CCR7; assay: FACS titration, NIH3T3.hCCR7 cells (receptor density >1,000,000)
[8] = target: T5, recombinant hCCR7 (Origene #TP306614); assay: ELISA on plate-coated recombinant hCCR7, antibody titrated, anti-hFc-HRP detection, OD 650 nm
human CCR7 [9] = target: T4, human CCR7; assay: cell-based or functional assay; remark: listed apart in the source
human CCR7 [10] = target: T4, human CCR7; assay: FACS titration, DEL cells (CCR7 receptor levels >=100,000)
human CCR7 [11] = target: T4, human CCR7; assay: FACS binding on CCR7 expressing cells, against the unconjugated antibody
human CCR7 [12] = target: T4, human CCR7; assay: cell-based or functional assay; remark: listed apart in the source
human CCR7 [13] = target: T4, human CCR7; assay: FACS titration, human CD4+ T cells from PBMC

Binder | binding result (CCR8) | binding result (CXCR4) | binding result (CCR9) | binding result (CCR6) | EC50 (cynomolgus monkey CCR7) | Kd (human CCR7 [1]) | Kd (human CCR7 [2]) | pHrodo (6 h MFI), internalization, CD4+ T cells (receptor numbers 2000) (human CCR7 [3]) | pHrodo (6 h MFI), internalization, CMLT1 cells (receptor numbers 19583) (human CCR7 [3]) | pHrodo (6 h MFI), internalization, DEL cells (receptor numbers 110685) (human CCR7 [3]) | pHrodo (6 h MFI), internalization, JVM3 cells (receptor numbers 8717) (human CCR7 [3]) | pHrodo (6 h MFI), internalization, Jeko-1 cells (receptor numbers 28852) (human CCR7 [3]) | pHrodo (6 h MFI), internalization, KE97 cells (receptor numbers 152093) (human CCR7 [3]) | pHrodo (6 h MFI), internalization, L540 cells (receptor numbers 167549) (human CCR7 [3]) | pHrodo (6 h MFI), internalization, L1236 cells (receptor numbers 61602) (human CCR7 [3]) | pHrodo (6 h MFI), internalization, MJ cells (receptor numbers 111121) (human CCR7 [3]) | pHrodo (6 h MFI), internalization, MOTN1 cells (receptor numbers 84200) (human CCR7 [3]) | pHrodo (6 h MFI), internalization, Mec2 cells (receptor numbers 50840) (human CCR7 [3]) | EC50 (human CCR7 [4]) | EC50 (human CCR7 [5]) | other results
674J13 humanized CysMab (Fc Wild Type) (antibody, V domains shown, Human IgG1 kappa with CysMab cysteines; also called Humanized CysMab antibody 674J13) VH: DVQLQESGPGLVKPSQTLSLTCTVSGYSITSGYSWHWIRQHPGKGLEWMAHIHSSGSTNYNPSLKSRITISRDTSKNQFSLKLSSVTAADTAVYYCARGGVQAFAYWGQGTLVTVSS VL: EIVLTQSPATLSASPGERVTMSCSASSSVIYMHWYQQKPGQAPRRWIYDTSKLASGVPARFSGSGSGTDYTLTISSMEPEDAAVYYCQQWSSNPLTFGQGTKLEIK | no binding (tested: 5 ug/ml) | no binding (tested: 5 ug/ml) | no binding (tested: 5 ug/ml) | no binding (tested: 5 ug/ml) | 0.5 nM | 0.166 nM | 0.0162 nM |  |  |  |  |  |  |  |  |  |  |  |  |  | 
Humanized 121G12.CysMab.DAPA (antibody, human IgG1, kappa, Human IgG1 kappa with D265A/P329A and CysMab cysteines; also called 121G12 (Humanized CysMab, DAPA)) heavy: EVQLVESGGGLVKPGGSLRLSCAASGFTFSTYAMSWVRQAPGKGLEWVATISDAGSYSYYPDNVKGRFTISRDNAKNSLYLQMNSLRAEDTAVYYCARRGSRYEEYYVMDYWGQGTTVTVSSASTKGPSVFPLAPSSKSTSGGTAALGCLVKDYFPCPVTVSWNSGALTSGVHTFPAVLQSSGLYSLSSVVTVPSSSLGTQTYICNVNHKPSNTKVDKRVEPKSCDKTHTCPPCPAPELLGGPSVFLFPPKPKDTLMISRTPEVTCVVVAVSHEDPEVKFNWYVDGVEVHNAKTKPREEQYNSTYRVVSVLTVLHQDWLNGKEYKCKVSNKALAAPIEKTISKAKGQPREPQVYTLPPSREEMTKNQVSLTCLVKGFYPCDIAVEWESNGQPENNYKTTPPVLDSDGSFFLYSKLTVDKSRWQQGNVFSCSVMHEALHNHYTQKSLSLSPGK light: EIVLTQSPATLSVSPGERVTLSCRASQSISNNLHWYQQKPGQAPRLLIKYASQSISGIPARFSGSGSGTDFTLTISSVEPEDFGVYFCQQSSSWLTFGQGTKLEIKRTVAAPSVFIFPPSDEQLKSGTASVVCLLNNFYPREAKVQWKVDNALQSGNSQESVTEQDSKDSTYSLSSTLTLSKADYEKHKVYACEVTHQGLSSPVTKSFNRGEC |  |  |  |  |  |  |  | 278 MFI | 301 MFI | 1910 MFI | 148 MFI | 450 MFI | 1570 MFI | 6840 MFI | 1240 MFI | 1650 MFI | 1030 MFI | 1340 MFI | 1.78 nM | ~30 nM | Kd [6]: 0.677 nM; EC50 (human CCR7 [7]): 2.5 nM; EC50 (read off the curve) [8]: ~0.6 nM
121G12.DAPA.sSPDB.DM4 (antibody, human IgG1, kappa, sulfo-SPDB-DM4 on endogenous lysines (sites not defined, may also be on the light chain); DAR 3.6 in Example 4B, DAR 3.9 in Tables 20 and 21, also called 121G12.sSPDB.DM4) heavy: not shown light: EIVLTQSPATLSVSPGERVTLSCRASQSISNNLHWYQQKPGQAPRLLIKYASQSISGIPARFSGSGSGTDFTLTISSVEPEDFGVYFCQQSSSWLTFGQGTKLEIKRTVAAPSVFIFPPSDEQLKSGTASVVCLLNNFYPREAKVQWKVDNALQSGNSQESVTEQDSKDSTYSLSSTLTLSKADYEKHKVYACEVTHQGLSSPVTKSFNRGEC |  |  |  |  |  |  |  |  |  |  |  |  |  |  |  |  |  |  |  |  | ADC activity in cell viability assay; IC50 (nM); DEL cells (human CCR7 [9]): 2.98 nM; ADC activity in cell viability assay; IC50 (nM); KE97 cells (human CCR7 [9]): 3.18 nM; ADC activity in cell viability assay; IC50 (nM); L540 cells (human CCR7 [9]): 3.9 nM; EC50 (human CCR7 [10]): 8.42 nM; difference of geometric mean fluorescence intensity from the unconjugated antibody (human CCR7 [11]): ≤ 20%
Humanized 506E15.CysMab.DAPA (antibody, human IgG1, kappa, V domains shown, Human IgG1 kappa with D265A/P329A and CysMab cysteines; also called 506E15 (Humanized CysMab DAPA)) VH: EVQLVESGGGLVKPGGSLRLSCAASGFTFSSYAMSWIRQAPGKGLEWVATISSGGSFTYYPDSVKGRFTISRDNAKNSLYLQMNSLRAEDTAVYYCARRASTVVGTDFDVWGQGTTVTVSS VL: DIQMTQSPSSLSASVGDRVTLTCRASQDIGSSLNWLQQKPGKAIKRLIYATSSLDSGVPSRFSGSRSGTDYTLTISSLQPEDFVVYYCLQYASSPPTFGGGTKLEIKR |  |  |  |  |  |  |  | 429 MFI | 465 MFI | 3060 MFI | 238 MFI | 908 MFI | 2720 MFI | 16100 MFI | 3130 MFI | 3870 MFI | 2900 MFI | 3090 MFI | 3.09 nM | ~10 nM | Kd [6]: 5.73 nM; EC50 (human CCR7 [7]): 1.8 nM
506E15 humanized CysMab (Fc Wild Type) (antibody, V domains shown, Human IgG1 kappa with CysMab cysteines; also called Humanized CysMab antibody 506E15) VH: EVQLVESGGGLVKPGGSLRLSCAASGFTFSSYAMSWIRQAPGKGLEWVATISSGGSFTYYPDSVKGRFTISRDNAKNSLYLQMNSLRAEDTAVYYCARRASTVVGTDFDVWGQGTTVTVSS VL: DIQMTQSPSSLSASVGDRVTLTCRASQDIGSSLNWLQQKPGKAIKRLIYATSSLDSGVPSRFSGSRSGTDYTLTISSLQPEDFVVYYCLQYASSPPTFGGGTKLEIK | no binding (tested: 5 ug/ml) | no binding (tested: 5 ug/ml) | no binding (tested: 5 ug/ml) | no binding (tested: 5 ug/ml) | 7 nM | 0.494 nM | 0.0571 nM |  |  |  |  |  |  |  |  |  |  |  |  |  | ADCC activity; IC50 (nM); reporter assay, JVM2 targets and Jurkat-V158 effectors (human CCR7 [12]): 0.054 nM; EC50 (human CCR7 [13]): 7.8 to 11 nM
